Experiment [1] deals with T1, recombinant toxin B fragment 4 (Clostridium difficile, UniProt P18177 1777-2366). As to the kind of experiment: Western blot, 3 ug protein per lane, mAb from CHOK1SV at 0.038 ug/mL [Cont.]. For orientation: In western blotting, separated proteins are transferred to a membrane and probed.
The target in experiment [2] is recombinant toxin B fragment 1 (Clostridium difficile, UniProt P18177 1-546). The experiment is described as above.
The target of experiment [3] is T2, Clostridium difficile toxin B (whole toxin B) (Clostridium difficile).
T2 construct: also called TcdB; tcdB
As to the kind of experiment: BLI (Octet QKe), mAb on SA sensor, toxin B analyte, model 1:1; head prints KD (nM) but Kdis/Kon gives this number in M. For orientation: Biolayer interferometry detects binding as a change in optical thickness at a sensor tip.

Experiment [4] addresses T2, Clostridium difficile toxin B (whole …). As to the kind of experiment: BLI (Octet QKe), mAb on SA sensor, toxin B analyte, model 1:1.
Experiment [5] deals with T1, recombinant toxin B fragment 4. Put plainly: Western blot, 3 ug protein per lane, mAb from CHOK1SV at 5 ug/mL.
Experiment [6] concerns the target T2, Clostridium difficile toxin B (whole …). Put plainly: BLI (Octet QKe), mAb from CHOK1SV, toxin B; column kdis2 (1/s).

T1 sequence (P18177 1777-2366 limits assumed): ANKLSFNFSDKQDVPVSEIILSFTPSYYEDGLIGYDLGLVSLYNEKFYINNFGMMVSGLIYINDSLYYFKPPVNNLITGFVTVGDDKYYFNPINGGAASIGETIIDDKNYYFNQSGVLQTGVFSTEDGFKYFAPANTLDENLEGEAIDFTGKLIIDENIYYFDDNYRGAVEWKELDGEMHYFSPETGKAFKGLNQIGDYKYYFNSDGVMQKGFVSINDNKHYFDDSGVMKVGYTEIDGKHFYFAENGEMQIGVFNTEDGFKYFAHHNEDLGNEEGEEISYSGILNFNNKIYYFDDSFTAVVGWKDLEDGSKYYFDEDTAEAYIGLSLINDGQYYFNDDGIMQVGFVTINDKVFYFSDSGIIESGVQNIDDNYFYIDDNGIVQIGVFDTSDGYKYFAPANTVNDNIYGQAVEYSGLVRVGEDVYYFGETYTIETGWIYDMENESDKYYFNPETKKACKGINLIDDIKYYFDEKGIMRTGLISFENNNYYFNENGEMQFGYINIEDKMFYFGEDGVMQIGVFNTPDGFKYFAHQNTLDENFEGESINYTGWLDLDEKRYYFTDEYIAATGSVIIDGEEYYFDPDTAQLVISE
Chain of recombinant toxin B fragment 1 (P18177 1-546 limits assumed): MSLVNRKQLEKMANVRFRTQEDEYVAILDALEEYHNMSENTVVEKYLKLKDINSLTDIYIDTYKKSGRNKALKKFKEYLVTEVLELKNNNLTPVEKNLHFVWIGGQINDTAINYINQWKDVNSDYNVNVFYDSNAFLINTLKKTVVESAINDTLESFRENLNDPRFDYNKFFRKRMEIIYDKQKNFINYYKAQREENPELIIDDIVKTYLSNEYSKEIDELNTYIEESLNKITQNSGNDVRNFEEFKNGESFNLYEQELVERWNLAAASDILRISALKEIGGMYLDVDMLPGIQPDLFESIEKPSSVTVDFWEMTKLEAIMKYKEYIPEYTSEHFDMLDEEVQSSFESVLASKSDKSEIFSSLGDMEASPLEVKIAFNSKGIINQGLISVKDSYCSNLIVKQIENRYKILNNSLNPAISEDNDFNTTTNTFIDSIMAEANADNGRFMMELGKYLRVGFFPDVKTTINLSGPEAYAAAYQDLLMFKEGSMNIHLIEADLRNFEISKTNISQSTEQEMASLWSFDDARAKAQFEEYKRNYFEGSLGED

B1: huCAN46G24 (antibody, V domains shown)
VH: EVQLVQSGAEVKKPGESVKVSCKASGYSFTGYYIHWVKQAPGQGLEWVGRIFPYNGAASYNQNFKGKATLTVDKSSSTAYMELSSLRSEDTAVYFCARWLRVYFDYWGQGTTVTVSS
VL: EIVLTQSPSSLSTSVGDRVTISCSASSSVTYMHWYQQKPGKAPKLWIYETSKLASGVPGRFSGSGSGNSYTFTISSLQPEDIATYYCFQGSGYPFTFGQGTKVEIK
notes: also called HuCAN46G24-2-3
B1: the binding result in experiment [1] is “binds”; in experiment [2] it was “no binding (tested: 0.038 ug/mL)”.

B2: huCAN46G13a (antibody, V domains shown)
VH: QVQLQESGPGLVKPSQTLSLTCTVTGYSITSDSAWNWIRQFPGNNLEWMGYISYSGSTSYNPSLKSRISITRDTSKNQFSLKVNSVTAADTAVYYCARRSRVSFYFDYWGQGTLVTVSS
VL: ENVLTQSPSSLSASVGDRVTMTCSASSSVSSSYLHWYQQKPGKSPKPLIHRTSTLASGVPSRFSGSGSGTSYSLTISSLQPEDIATYYCQQWSGYPYTFGGGTKVEIK
Broadly, the Kd is a measure of binding affinity in units of concentration. Low values mean tighter binding, high ones weaker binding. What is called koff is the rate constant with which the complex falls apart. A high value points to a short-lived complex. As a reminder, the kon is a measure of how fast the partners come together. Lower therefore signals slower complex formation. Consider B2, for which the Kd in experiment [3] came to 0.423 nM. Also, in experiment [4], the koff amounted to 0.000234 s⁻¹ and the kon turned out to be 552000 M⁻¹ s⁻¹. The binding result in experiment [5] is on record as “no binding (tested: 5 ug/mL)”. The same molecule returned a koff in experiment [6] of less than 1e-07 s⁻¹.
